From US20230322953A1 (HARBOUR BIOMED SHANGHAI, published 2023) come the findings set out here.

For test [1], the target named is T1, human BCMA (human, UniProt Q02223 1-184).
T1 construct: whole, on cells; also called hBCMA; TNFRSF17
T1 sequence (looked up): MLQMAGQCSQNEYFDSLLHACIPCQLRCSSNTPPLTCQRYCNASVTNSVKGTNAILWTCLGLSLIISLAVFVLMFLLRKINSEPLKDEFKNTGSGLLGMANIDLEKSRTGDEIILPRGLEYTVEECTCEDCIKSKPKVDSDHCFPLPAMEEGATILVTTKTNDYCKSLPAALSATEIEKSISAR
As to the kind of experiment: FACS on NCI-H929 cells.
Procedure: (§1) This example is intended to investigate the binding activity of anti-BCMA HCAb antibodies to human and cynomolgus monkey BCMAs. […] Specifically, HEK293T/hBCMA cells and HEK293T/cyno BCMA cells were digested and resuspended in a DMEM complete medium. In addition, NCI-H929 cell suspension was collected. The density of each of the three cells was adjusted to 1×10⁶ cells/mL. […] The cells were incubated at 4° C. for 1 h away from light. Thereafter, the cells in each well were rinsed twice with 100 μL of pre-cooled PBS, and centrifuged at 500 g at 4° C. for 5 min, and then the supernatant was discarded. […] The cells in each well were rinsed twice with 100 μL of pre-cooled PBS, and centrifuged at 500 g at 4° C. for 5 min, and then the supernatant was discarded. Finally, the cells in each well were resuspended in 200 μL of pre-cooled PBS. Fluorescence signal values were read using a BD FACS CANTOII flow cytometer or an ACEA NovoCyte flow cytometer, and the data were processed and analyzed using FlowJo v10 (FlowJo, LLC) software. The data were processed and analyzed by plotting using GraphPad Prism 8 software, and binding curves of the antibodies to target cells, EC₅₀ values and other parameters were obtained through four-parameter nonlinear fitting.

Another test has as its target T2, cynomolgus monkey BCMA (cynomolgus monkey, UniProt A0A2K5UD97 1-183).
T2 construct: whole, on cells; also called cyno BCMA
Nature of the test: FACS on HEK293T/cyno BCMA cells.

For test [2], the target named is T1, human BCMA. As to the kind of experiment: FACS on HEK293T/hBCMA cells, Experiment 2.
Procedure: as §1

T2 sequence (A0A2K5UD97 entry or part of it): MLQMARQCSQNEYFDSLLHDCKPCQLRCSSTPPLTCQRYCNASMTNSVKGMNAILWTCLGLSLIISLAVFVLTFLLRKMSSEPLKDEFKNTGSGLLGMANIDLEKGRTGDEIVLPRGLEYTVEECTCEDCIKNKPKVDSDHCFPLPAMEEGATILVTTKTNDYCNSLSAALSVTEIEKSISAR
Procedure for cynomolgus monkey BCMA: as §1

B1: PR002892 (bispecific antibody, human IgG1, lambda, L234A L235A)
light: QAVVTQEPSLTVSPGGTVTLTCRSSTGAVTTSNYANWVQQKPGQAPRGLIGGTNKRAPWTPARFSGSLLGDKAALTLLGAQPEDEAEYFCALWYSNLWVFGGGTKLTVLGQPKAAPSVTLFPPSSEELQANKATLVCLISDFYPGAVTVAWKADSSPVKAGVETTTPSKQSNNKYAASSYLSLTPEQWKSHRSYSCQVTHEGSTVEKTVAPTECS
heavy: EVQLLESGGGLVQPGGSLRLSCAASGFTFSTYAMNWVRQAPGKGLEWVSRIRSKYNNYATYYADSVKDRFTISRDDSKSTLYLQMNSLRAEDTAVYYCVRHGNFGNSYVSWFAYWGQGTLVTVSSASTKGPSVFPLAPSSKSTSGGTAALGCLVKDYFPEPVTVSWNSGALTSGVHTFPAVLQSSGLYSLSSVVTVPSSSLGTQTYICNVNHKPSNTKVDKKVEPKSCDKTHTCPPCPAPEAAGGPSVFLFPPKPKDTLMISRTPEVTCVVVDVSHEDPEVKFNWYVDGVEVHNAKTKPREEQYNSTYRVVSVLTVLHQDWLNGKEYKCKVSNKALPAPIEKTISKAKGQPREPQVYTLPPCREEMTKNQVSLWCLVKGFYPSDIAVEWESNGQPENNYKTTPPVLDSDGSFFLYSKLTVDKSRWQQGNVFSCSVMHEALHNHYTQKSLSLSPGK
chain: EVQLVETGGGLIQPGGSLRLSCAASGFTVSDNYMTWVRQAPGKGLEWVSVIFSGGNTYYADSVKGRFTISRDNAKNTLYLQMNSLRAEDTALYYCARRNYDDTRGTDVFDIWGQGTMVTVSSGGGGSEVQLVETGGGLIQPGGSLRLSCAASGFTVSDNYMTWVRQAPGKGLEWVSVIFSGGNTYYADSVKGRFTISRDNAKNTLYLQMNSLRAEDTALYYCARRNYDDTRGTDVFDIWGQGTMVTVSSASEPKSSDKTHTCPPCPAPEAAGGPSVFLFPPKPKDTLMISRTPEVTCVVVDVSHEDPEVKFNWYVDGVEVHNAKTKPREEQYNSTYRVVSVLTVLHQDWLNGKEYKCKVSNKALPAPIEKTISKAKGQPREPQVCTLPPSREEMTKNQVSLSCAVKGFYPSDIAVEWESNGQPENNYKTTPPVLDSDGSFFLVSKLTVDKSRWQQGNVFSCSVMHEALHNHYTQKSLSLSPGK
For the molecule B1, the EC50 in the test with human BCMA [1] is 4.27 nM; with human BCMA [2], 0.767 nM. For the same molecule, the “Maximum MFI” value in the test with human BCMA [1] turned out to be 4360; in the test with cynomolgus monkey BCMA, 15000; with human BCMA [2], 15500.

B2: PR002901 (bispecific antibody, human IgG1, lambda, L234A L235A)
light: QAVVTQEPSLTVSPGGTVTLTCRSSTGAVTTSNYANWVQQKPGQAPRGLIGGTNKRAPWTPARFSGSLLGDKAALTLLGAQPEDEAEYFCALWYSNLWVFGGGTKLTVLGQPKAAPSVTLFPPSSEELQANKATLVCLISDFYPGAVTVAWKADSSPVKAGVETTTPSKQSNNKYAASSYLSLTPEQWKSHRSYSCQVTHEGSTVEKTVAPTECS
heavy: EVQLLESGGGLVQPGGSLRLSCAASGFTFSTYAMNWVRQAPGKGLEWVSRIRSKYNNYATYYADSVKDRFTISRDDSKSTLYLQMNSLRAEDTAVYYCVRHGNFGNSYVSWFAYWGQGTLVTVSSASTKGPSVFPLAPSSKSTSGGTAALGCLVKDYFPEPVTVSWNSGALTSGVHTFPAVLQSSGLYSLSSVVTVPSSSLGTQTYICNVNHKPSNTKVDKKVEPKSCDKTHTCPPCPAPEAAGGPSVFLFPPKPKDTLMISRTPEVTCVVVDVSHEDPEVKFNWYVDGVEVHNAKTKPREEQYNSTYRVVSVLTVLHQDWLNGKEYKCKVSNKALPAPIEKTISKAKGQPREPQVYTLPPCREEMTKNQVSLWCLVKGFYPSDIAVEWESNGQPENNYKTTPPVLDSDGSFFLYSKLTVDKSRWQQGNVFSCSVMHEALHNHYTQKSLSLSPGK
chain: EVQLVETGGGLIQPGGSLRLSCAASGFTVSDNYMTWVRQAPGKGLEWVSVIFSGGNTYYADSVKGRFTISRDNAKNTLYLQMNSLRAEDTALYYCARRNYDDTRGTDVFDIWGQGTMVTVSSGSGSEVQLVETGGGLIQPGGSLRLSCAASGFTVSDNYMTWVRQAPGKGLEWVSVIFSGGNTYYADSVKGRFTISRDNAKNTLYLQMNSLRAEDTALYYCARRNYDDTRGTDVFDIWGQGTMVTVSSASEPKSSDKTHTCPPCPAPEAAGGPSVFLFPPKPKDTLMISRTPEVTCVVVDVSHEDPEVKFNWYVDGVEVHNAKTKPREEQYNSTYRVVSVLTVLHQDWLNGKEYKCKVSNKALPAPIEKTISKAKGQPREPQVCTLPPSREEMTKNQVSLSCAVKGFYPSDIAVEWESNGQPENNYKTTPPVLDSDGSFFLVSKLTVDKSRWQQGNVFSCSVMHEALHNHYTQKSLSLSPGK
On to B2, for which the values for the half-maximal effective concentration (EC50) with human BCMA [1] and with human BCMA [2] were 2.32 nM and 0.654 nM, respectively. Besides, the figures for the “Maximum MFI” value in the test with human BCMA [1], with cynomolgus monkey BCMA and in the test with human BCMA [2] were 4180, 11000 and 14700, respectively.

B3: PR002328 (bispecific antibody, human IgG1, lambda, L234A L235A)
light: QAVVTQEPSLTVSPGGTVTLTCRSSTGAVTTSNYANWVQQKPGQAPRGLIGGTNKRAPWTPARFSGSLLGDKAALTLLGAQPEDEAEYFCALWYSNLWVFGGGTKLTVLGQPKAAPSVTLFPPSSEELQANKATLVCLISDFYPGAVTVAWKADSSPVKAGVETTTPSKQSNNKYAASSYLSLTPEQWKSHRSYSCQVTHEGSTVEKTVAPTECS
heavy: EVQLLESGGGLVQPGGSLRLSCAASGFTFSTYAMNWVRQAPGKGLEWVSRIRSKYNNYATYYADSVKDRFTISRDDSKSTLYLQMNSLRAEDTAVYYCVRHGNFGNSYVSWFAYWGQGTLVTVSSASTKGPSVFPLAPSSKSTSGGTAALGCLVKDYFPEPVTVSWNSGALTSGVHTFPAVLQSSGLYSLSSVVTVPSSSLGTQTYICNVNHKPSNTKVDKKVEPKSCDKTHTCPPCPAPEAAGGPSVFLFPPKPKDTLMISRTPEVTCVVVDVSHEDPEVKFNWYVDGVEVHNAKTKPREEQYNSTYRVVSVLTVLHQDWLNGKEYKCKVSNKALGAPIEKTISKAKGQPREPQVYTLPPCREEMTKNQVSLWCLVKGFYPSDIAVEWESNGQPENNYKTTPPVLDSDGSFFLYSKLTVDKSRWQQGNVFSCSVMHEALHNHYTQKSLSLSPGK
chain: EVQLVETGGGLIQPGGSLRLSCAASGFTVSSNYMTWVRQAPGKGLEWVSVIFSGGSTYYADSVKGRFTISRDNSKNTLYLQMNSLRAEDTAVYYCARRIAVAGHDVFDIWGQGTMVTVSSRTGGGGSGGGGSGGGGSGGGGSGGGGSKLEVQLVETGGGLIQPGGSLRLSCAASGFTVSDNYMTWVRQAPGKGLEWVSVIFSGGNTYYADSVKGRFTISRDNAKNTLYLQMNSLRAEDTALYYCARRNYDDTRGTDVFDIWGQGTMVTVSSASEPKSSDKTHTCPPCPAPEAAGGPSVFLFPPKPKDTLMISRTPEVTCVVVDVSHEDPEVKFNWYVDGVEVHNAKTKPREEQYNSTYRVVSVLTVLHQDWLNGKEYKCKVSNKALGAPIEKTISKAKGQPREPQVCTLPPSREEMTKNQVSLSCAVKGFYPSDIAVEWESNGQPENNYKTTPPVLDSDGSFFLVSKLTVDKSRWQQGNVFSCSVMHEALHNHYTQKSLSLSPGK
As for B3, the EC50 with human BCMA [1] was determined as 6.89 nM. The results for the “Maximum MFI” value in the test with human BCMA [1] and with cynomolgus monkey BCMA were 58900 and 7810, respectively.

B4: PR002898 (bispecific antibody, human IgG1, lambda, L234A L235A)
light: QAVVTQEPSLTVSPGGTVTLTCRSSTGAVTTSNYANWVQQKPGQAPRGLIGGTNKRAPWTPARFSGSLLGDKAALTLLGAQPEDEAEYFCALWYSNLWVFGGGTKLTVLGQPKAAPSVTLFPPSSEELQANKATLVCLISDFYPGAVTVAWKADSSPVKAGVETTTPSKQSNNKYAASSYLSLTPEQWKSHRSYSCQVTHEGSTVEKTVAPTECS
heavy: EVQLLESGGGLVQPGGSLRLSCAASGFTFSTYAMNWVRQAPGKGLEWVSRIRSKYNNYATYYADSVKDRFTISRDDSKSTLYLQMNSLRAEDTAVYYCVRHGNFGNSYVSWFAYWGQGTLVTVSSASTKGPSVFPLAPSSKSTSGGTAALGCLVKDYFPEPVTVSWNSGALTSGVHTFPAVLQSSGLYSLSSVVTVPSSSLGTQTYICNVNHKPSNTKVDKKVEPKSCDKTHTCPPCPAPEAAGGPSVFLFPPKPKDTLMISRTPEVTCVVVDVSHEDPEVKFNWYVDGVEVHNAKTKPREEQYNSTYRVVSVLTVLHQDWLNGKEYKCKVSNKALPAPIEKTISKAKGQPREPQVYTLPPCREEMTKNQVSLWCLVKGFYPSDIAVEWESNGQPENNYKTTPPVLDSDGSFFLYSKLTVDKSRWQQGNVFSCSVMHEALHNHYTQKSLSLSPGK
chain: EVQLVETGGGLIQPGGSLRLSCAASGFTVSDNYMTWVRQAPGKGLEWVSVIFSGGNTYYADSVKGRFTISRDNAKNTLYLQMNSLRAEDTALYYCARRNYDDTRGTDVFDIWGQGTMVTVSSGSEVQLVETGGGLIQPGGSLRLSCAASGFTVSDNYMTWVRQAPGKGLEWVSVIFSGGNTYYADSVKGRFTISRDNAKNTLYLQMNSLRAEDTALYYCARRNYDDTRGTDVFDIWGQGTMVTVSSASEPKSSDKTHTCPPCPAPEAAGGPSVFLFPPKPKDTLMISRTPEVTCVVVDVSHEDPEVKFNWYVDGVEVHNAKTKPREEQYNSTYRVVSVLTVLHQDWLNGKEYKCKVSNKALPAPIEKTISKAKGQPREPQVCTLPPSREEMTKNQVSLSCAVKGFYPSDIAVEWESNGQPENNYKTTPPVLDSDGSFFLVSKLTVDKSRWQQGNVFSCSVMHEALHNHYTQKSLSLSPGK
Regarding B4, the values for the half-maximal effective concentration (EC50) in the test with human BCMA [1] and in the test with human BCMA [2] were 1.94 nM and 0.791 nM, respectively. The results for the “Maximum MFI” value with human BCMA [1], with cynomolgus monkey BCMA and with human BCMA [2] were 3730, 8190 and 12600, respectively.

B5: PR002950 (bispecific antibody, human IgG1, lambda, L234A L235A)
light: QAVVTQEPSLTVSPGGTVTLTCRSSTGAVTTSNYANWVQQKPGQAPRGLIGGTNKRAPWTPARFSGSLLGDKAALTLLGAQPEDEAEYFCALWYSNLWVFGGGTKLTVLGQPKAAPSVTLFPPSSEELQANKATLVCLISDFYPGAVTVAWKADSSPVKAGVETTTPSKQSNNKYAASSYLSLTPEQWKSHRSYSCQVTHEGSTVEKTVAPTECS
heavy: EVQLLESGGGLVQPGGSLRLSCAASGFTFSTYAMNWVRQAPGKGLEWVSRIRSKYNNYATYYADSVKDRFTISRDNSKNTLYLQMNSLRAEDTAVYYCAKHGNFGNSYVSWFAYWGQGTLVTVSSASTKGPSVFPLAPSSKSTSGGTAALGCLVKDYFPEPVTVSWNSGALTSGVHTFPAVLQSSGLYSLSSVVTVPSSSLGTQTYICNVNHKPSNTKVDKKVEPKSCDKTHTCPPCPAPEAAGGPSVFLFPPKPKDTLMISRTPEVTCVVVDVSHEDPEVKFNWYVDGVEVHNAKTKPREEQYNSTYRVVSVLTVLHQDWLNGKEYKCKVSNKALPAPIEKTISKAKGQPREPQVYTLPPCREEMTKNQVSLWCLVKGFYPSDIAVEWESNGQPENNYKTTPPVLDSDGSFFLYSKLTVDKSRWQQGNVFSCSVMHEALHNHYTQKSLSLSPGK
chain: EVQLVETGGGLIQPGGSLRLSCAASGFTVSDNYMTWVRQAPGKGLEWVSVIFSGGNTYYADSVKGRFTISRDNAKNTLYLQMNSLRAEDTALYYCARRNYDDTRGTDVFDIWGQGTMVTVSSGGGGSEVQLVETGGGLIQPGGSLRLSCAASGFTVSDNYMTWVRQAPGKGLEWVSVIFSGGNTYYADSVKGRFTISRDNAKNTLYLQMNSLRAEDTALYYCARRNYDDTRGTDVFDIWGQGTMVTVSSASEPKSSDKTHTCPPCPAPEAAGGPSVFLFPPKPKDTLMISRTPEVTCVVVDVSHEDPEVKFNWYVDGVEVHNAKTKPREEQYNSTYRVVSVLTVLHQDWLNGKEYKCKVSNKALPAPIEKTISKAKGQPREPQVCTLPPSREEMTKNQVSLSCAVKGFYPSDIAVEWESNGQPENNYKTTPPVLDSDGSFFLVSKLTVDKSRWQQGNVFSCSVMHEALHNHYTQKSLSLSPGK
As for B5, the EC50 in the test with human BCMA [1] stood at 4.11 nM. Further, the “Maximum MFI” value came to 4190 with human BCMA [1], 26600 in the test with cynomolgus monkey BCMA and 22100 in the test with human BCMA [2].

B6: PR002956 (bispecific antibody, human IgG1, lambda, L234A L235A)
light: QAVVTQEPSLTVSPGGTVTLTCRSSTGAVTTSNYANWVQQKPGQAPRGLIGGTNKRAPWTPARFSGSLLGDKAALTLLGAQPEDEAEYFCALWYSNLWVFGGGTKLTVLGQPKAAPSVTLFPPSSEELQANKATLVCLISDFYPGAVTVAWKADSSPVKAGVETTTPSKQSNNKYAASSYLSLTPEQWKSHRSYSCQVTHEGSTVEKTVAPTECS
heavy: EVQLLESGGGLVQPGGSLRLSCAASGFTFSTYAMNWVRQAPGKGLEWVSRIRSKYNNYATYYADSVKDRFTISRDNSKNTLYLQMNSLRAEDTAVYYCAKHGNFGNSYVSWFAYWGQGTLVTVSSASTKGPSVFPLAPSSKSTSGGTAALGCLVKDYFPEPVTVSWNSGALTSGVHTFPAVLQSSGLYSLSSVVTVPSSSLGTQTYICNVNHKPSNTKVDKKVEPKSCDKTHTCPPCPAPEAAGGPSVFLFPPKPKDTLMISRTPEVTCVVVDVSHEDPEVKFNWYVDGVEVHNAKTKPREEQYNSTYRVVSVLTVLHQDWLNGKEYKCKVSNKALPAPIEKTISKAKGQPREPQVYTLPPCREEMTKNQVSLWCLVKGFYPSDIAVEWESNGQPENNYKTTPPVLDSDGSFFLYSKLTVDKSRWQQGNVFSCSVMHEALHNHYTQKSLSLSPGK
chain: EVQLVETGGGLIQPGGSLRLSCAASGFTVSDNYMTWVRQAPGKGLEWVSVIFSGGNTYYADSVKGRFTISRDNAKNTLYLQMNSLRAEDTALYYCARRNYDDTRGTDVFDIWGQGTMVTVSSGSEVQLVETGGGLIQPGGSLRLSCAASGFTVSDNYMTWVRQAPGKGLEWVSVIFSGGNTYYADSVKGRFTISRDNAKNTLYLQMNSLRAEDTALYYCARRNYDDTRGTDVFDIWGQGTMVTVSSASEPKSSDKTHTCPPCPAPEAAGGPSVFLFPPKPKDTLMISRTPEVTCVVVDVSHEDPEVKFNWYVDGVEVHNAKTKPREEQYNSTYRVVSVLTVLHQDWLNGKEYKCKVSNKALPAPIEKTISKAKGQPREPQVCTLPPSREEMTKNQVSLSCAVKGFYPSDIAVEWESNGQPENNYKTTPPVLDSDGSFFLVSKLTVDKSRWQQGNVFSCSVMHEALHNHYTQKSLSLSPGK
B6: the EC50 with human BCMA [1] amounted to 3.95 nM. The “Maximum MFI” value with human BCMA [1] came to 3570; with cynomolgus monkey BCMA, 16200; with human BCMA [2], 17600.
